Measured values reported in patent publication US5851983A, “Elastase inhibitory polypeptide and process for production thereof by recombinant gene technology” (Teijin Limited, priority 1987, dated 1998).

Columns and labels:
Human plasma thrombin = target: T1, Human plasma thrombin (Homo sapiens, UniProt P00734); test: Assay for thrombin inhibitory activity (Example 25); assay type: biochemical; details: final concentration up to ×10^-5 M; enzyme 3 × 10^-9 M
T1 construct: (5) Human plasma thrombin (Kabi, Daiichi Kagaku Yakuhin); purchased Kabi (via Daiichi Kagaku Yakuhin); host or cells: human plasma
Protocol: F. Human plasma thrombin (Sigma)
Buffer: Buffer solution for each enzyme is as follow. Thrombin and FXa: 50 mM Tris-HCl, 7.5 mM EDTA-2Na, 175 mM NaCl (pH 8.4) […]
Substrate solution: for the enzymes F, G, H and I, the following substrate f, g, h or i, respectively, was dissolved to a final concentration shown in Table 14.
f. H.D-Phe-Pip-Arg-pNA (Kabi Vitrum)
To wells of an ELISA 96-well microtiter plate, were added a solution of (Arg^59 -Ala^107) SLPI obtained in Example 23 and then the enzyme solution, and the mixture was incubated at 37° C. for 10 minutes. Next, the substrate solution was added to develop the color, whose absorption was then measured at 405 nm. As a control, SLPI was used.

[1] = Partial hydrolysis with healthy human saliva (Examples 15, 16); assay type: in vitro ADME; details: 37° C.
Protocol: Healthy human saliva was filtered through a 0.22 μm filter (Milex GS, Milipore), and in the filtrate was dissolved 1 mg/ml of the SLPI prepared in Reference Example 1. The mixture was then incubated at 37° C. for 30 days. As a control, the SLPI was dissolved in physiological saline (Physisalz; Fuso Yakuhin Kogyo), and the mixture was incubated at 37° C. for 30 days.
With an elapse of time, samples were taken and to each sample were added a Tris-HCl buffer (pH 6.8), SDS, 2-mercaptoethamel and glycerol, to final concentration of 60 mM, 2% by weight, 4% by weight and 10% by weight, respectively, and the mixture was subjected to an SDS-PAGE (U.K. Laemmli, Nature, 227, 680, 1970). The gel after electrophoresis was stained with Coomussie Brilliant Blue.
Next, polypeptides in the polyacrylamide gel thus obtained were electrically transferred to a membrane (Immobilon; Milipore) using a Milli Blot-SDE apparatus. After the transfer, the membrane was stained with 0.1% by weight of Coomassie Blue in 40% by weight methanol/1% by weight acetic acid, and washed with water. Then, after air drying, the bands b, c, d and e were excised, and for each band, the PTH-amino acids were cleaved from the N-terminus with an Applied Biosystems Protein Sequences (Applied Biosystems; 470A) and analysed with a PTH analyser (Applied Biosystems, 120A) to determine an amino acid sequence for 10 amino acids from the N-terminus.
According to the same procedure as described in Example 15, (Asn^55 -Ala^107) SLPI prepared in Example 11 was treated with healthy human saliva at 37° C., and a result is shown in FIG. 13. […] After 12 hours, a new band g (MW about 5,500) appeared.
Next, according to the same procedure as described in Example 15, the band g was electrically transferred to a membrane and N-terminal amino acid sequence was analyzed. […] The 6th amino acid could not be determined. The N-terminal amino acid sequence of the band g corresponds to an amino acid sequence starting from Arg^59 of SLPI.

Human plasma kallikrein = target: T2, Human plasma kallikrein (Homo sapiens, UniProt P03952); test: Assay for kallikrein inhibitory activity (Example 36); assay type: biochemical; details: final concentration up to ×10^-5 M; enzyme 1.0 × 10^-7 M
T2 construct: (7) Human plasma kallikrein (Kabi, Daiichi Kagaku Yakuhin); purchased Kabi (via Daiichi Kagaku Yakuhin); host or cells: human plasma
Protocol: H. Human plasma kallikrein (Protogene, Funakoshi Yakuhin)
Kallikrein: 50 mM Tris-HCl, 361 mM NaCl, 0.01 mg/ml Polybrene (pH 7.8) […]
Substrate solution: for the enzymes F, G, H and I, the following substrate f, g, h or i, respectively, was dissolved to a final concentration shown in Table 24.
h. H.D-Pro-Phe-Arg-pNA (Kabi Vitram)
To wells of an ELISA 96-well microtiter plate, were added a solution of (Arg^58 -Ala^107) SLPI obtained in Example 34 and then the enzyme solution, and the mixture was incubated at 37° C. for 10 minutes. Next, the substrate solution was added to develop the color, whose absorption was then measured at 405 nm. As a control, SLPI was used.

T2 sequence (P03952 391-638 limits assumed): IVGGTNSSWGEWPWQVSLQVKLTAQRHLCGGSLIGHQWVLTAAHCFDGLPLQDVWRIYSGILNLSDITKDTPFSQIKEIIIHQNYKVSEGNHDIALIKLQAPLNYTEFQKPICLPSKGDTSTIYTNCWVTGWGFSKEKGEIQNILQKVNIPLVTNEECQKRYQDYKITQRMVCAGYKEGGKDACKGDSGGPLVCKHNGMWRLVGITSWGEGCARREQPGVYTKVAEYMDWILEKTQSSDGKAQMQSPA
T2 sequence (P03952 20-390 partner limits assumed): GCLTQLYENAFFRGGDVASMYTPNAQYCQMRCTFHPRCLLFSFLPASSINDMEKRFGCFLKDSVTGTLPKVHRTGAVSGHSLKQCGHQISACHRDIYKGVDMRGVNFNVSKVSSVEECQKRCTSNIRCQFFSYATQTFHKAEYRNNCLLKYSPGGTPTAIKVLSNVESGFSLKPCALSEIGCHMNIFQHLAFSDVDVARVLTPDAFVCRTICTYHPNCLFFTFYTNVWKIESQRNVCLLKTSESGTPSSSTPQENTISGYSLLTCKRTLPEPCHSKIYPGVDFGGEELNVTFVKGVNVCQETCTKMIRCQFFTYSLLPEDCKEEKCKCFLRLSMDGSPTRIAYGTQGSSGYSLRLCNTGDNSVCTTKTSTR

B1: SLPI: Human secretory leukoprotease inhibitor; recombinant SLPI of Reference Example 1 used as control (protein)
chain: SGKSFKAGVCPPKKSAQCLRYKKPECQSDWQCPGKKRCCPDTCGIKCLDPVDTPNPTRRKPGKCPVTYGQCLMLNPPNFCEMDGQCKRDLKCCMGMCGKSCVSPVKA
For B1, the “inhibitory activity to thrombin” value (Human plasma thrombin) was “did not exhibit inhibitory activity”, the “SDS-PAGE band of SLPI (MW about 13,000) during incubation in healthy human saliva” value ([1]; 1 mg/ml, up to 30 days) was “decreased as time elapid” and the “SDS-PAGE band after incubation in physiological saline (control)” value ([1]; 30 days) was “maintained a band having an MW of about 13,000 during the incubation”. The “cleavage sites in healthy human saliva” value ([1]; SDS-PAGE bands, N-terminal sequencing) was “between Arg^20 -Try^21, Arg^58 -Arg^59, Leu^72 -Met^73, and Met^73 -Leu^74” and the “inhibitory activity to kallikrein” value (Human plasma kallikrein) was “did not exhibit inhibitory activity”.
